Experimental data as given in PMC11187563, “The importance of tyrosines in multimers of cyclic RGD nonapeptides: towards αvβ6-integrin targeted radiotherapeutics” (RSC Medicinal Chemistry, 2024).
Read-outs that look alike come from different tables or passages of the source.

Tests used:
[1] = Ex vivo biodistribution of 177Lu-labeled peptide tetramers in H2009 xenografted SCID mice; settings: CB17 SCID, mouse, iv, total radioactivity, H2009 bearing SCID mice; for tissue uptake at 72 h / tissue to tissue ratio at 72 h: 70 pmol, 3 d p.i.; for tissue uptake at 1.5 h / tissue to tissue ratio at 1.5 h: 118 pmol, 90 min p.i.
Method: (§1) The biodistribution of the ^177Lu-labeled peptide conjugates was investigated in severe combined immunodeficiency (SCID) mice bearing subcutaneous xenografts of the αvβ6-integrin expressing human lung adenocarcinoma cell line H2009 on their right shoulders. Two representative time points after i.v. administration (p.i.) were evaluated.
(§2) Analytical HPLC was performed on a Shimadzu (Kyoto, Japan) Prominence HPLC system equipped with either a Dr. Maisch ReproSil Pur C18 AQ 150 × 4.6 mm, 5 μm, 120 Å (AC1) or a Phenomenex Kinetex C18 150 × 4.6 mm 5 μm column (AC2). Semipreparative HPLC was performed on a Shimadzu HPLC system equipped with either a Dr. Maisch ReproSil Pur C18 AQ 250 × 10 mm, 5 μm, 120 Å column with 5 mL min^−1 flow (PC1) or a Dr. Maisch ReproSil Pur C18 150 × 30 mm, 5 μm, 120 Å column with 20 mL min^−1 flow (PC2). Solvents for both systems were water (A) and acetonitrile (B) each supplemented with 0.1% (vol) trifluoroacetic acid (TFA). ESI-MS spectra (positive mode) were recorded on a Shimadzu LC-MS 2020 single quadrupol mass spectrometer. Solvents for MS applications were water (A) and acetonitrile (B) each supplemented with 0.1% (vol) formic acid. The other experimental procedures (determination of log D7.4, cultivation of H2009 human lung adenocarcinoma cells, generation of tumor xenografts in CB17 SCID mice, and biodistribution) were performed as described before.[28] All animal experiments have been carried out according to applicable law and institutional guidelines of Technical University of Munich, and were approved by the responsible local authority (Regierung von Oberbayern). The H2009 cells were regularly authenticated and tested for mycoplasma contamination. DOTPI-tetraazide,[43]FF (previously termed AvB6),[29]FY,[34] and YY (also referred to as Tyr2-alkyne)[36] were synthesized as described previously.

[2] = test system: αvβ6-integrin expressing human lung adenocarcinoma cell line H2009 xenografts; assay: as above; settings: H2009 bearing SCID mice
Method: as §1, §2

[3] = H2009 tumor, read-out: Tumor H2009 %IA/g
[4] = adrenals, read-out: Adrenals %IA/g
[5] = heart (myocard), read-out: Heart (myocard) %IA/g
[6] = kidneys, read-out: Kidneys %IA/g
[7] = large intestine (empty), read-out: Large intestine (empty) %IA/g
[8] = pancreas, read-out: Pancreas %IA/g
[9] = small intestine (empty), read-out: Small intestine (empty) %IA/g
[10] = stomach (empty), read-out: Stomach (empty) %IA/g
[11] = tumor/blood, read-out: tumor/organ ratio, Blood
[12] = tumor/heart (myocard), read-out: tumor/organ ratio, Heart (myocard)
[13] = tumor/liver, read-out: tumor/organ ratio, Liver
[14] = tumor/lung, read-out: tumor/organ ratio, Lung
[15] = tumor/pancreas, read-out: tumor/organ ratio, Pancreas
[16] = tumor/spleen, read-out: tumor/organ ratio, Spleen

In the case of CC(C)C[C@@H]1NC(=O)[C@H](CC(=O)O)NC(=O)CNC(=O)[C@H](CCCNC(=N)N)NC(=O)[C@H](Cc2ccccc2)NC(=O)[C@H](CCCCNC(=O)CCC(=O)NCCCC[C@H](NC(=O)[C@H](Cc2ccccc2)NC(=O)CNC(=O)CCc2cn(CCCNC(=O)CCP(=O)(O)CN3CCN(CP(=O)(O)CCC(=O)NCCCn4cc(CCC(=O)NCC(=O)N[C@@H](Cc5ccccc5)C(=O)N[C@@H](CCCCNC(=O)CCC(=O)NCCCC[C@H]5C(=O)N[C@@H](Cc6ccccc6)C(=O)N[C@@H](CCCNC(=N)N)C(=O)NCC(=O)N[C@@H](CC(=O)O)C(=O)N[C@@H](CC(C)C)C(=O)N[C@@H](C)C(=O)N[C@@H](Cc6ccc(O)cc6)C(=O)N6CCC[C@@H]6C(=O)N5C)C(=O)O)nn4)CCN(CP(=O)(O)CCC(=O)NCCCn4cc(CCC(=O)NCC(=O)N[C@@H](Cc5ccccc5)C(=O)N[C@@H](CCCCNC(=O)CCC(=O)NCCCC[C@H]5C(=O)N[C@@H](Cc6ccccc6)C(=O)N[C@@H](CCCNC(=N)N)C(=O)NCC(=O)N[C@@H](CC(=O)O)C(=O)N[C@@H](CC(C)C)C(=O)N[C@@H](C)C(=O)N[C@@H](Cc6ccc(O)cc6)C(=O)N6CCC[C@@H]6C(=O)N5C)C(=O)O)nn4)CCN(CP(=O)(O)CCC(=O)NCCCn4cc(CCC(=O)NCC(=O)N[C@@H](Cc5ccccc5)C(=O)N[C@@H](CCCCNC(=O)CCC(=O)NCCCC[C@H]5C(=O)N[C@@H](Cc6ccccc6)C(=O)N[C@@H](CCCNC(=N)N)C(=O)NCC(=O)N[C@@H](CC(=O)O)C(=O)N[C@@H](CC(C)C)C(=O)N[C@@H](C)C(=O)N[C@@H](Cc6ccc(O)cc6)C(=O)N6CCC[C@@H]6C(=O)N5C)C(=O)O)nn4)CC3)nn2)C(=O)O)N(C)C(=O)[C@H]2CCCN2C(=O)[C@H](Cc2ccc(O)cc2)NC(=O)[C@H](C)NC1=O [Compound 177Lu-GFK-Y4, metal not drawn], the tissue uptake at 72 h [1, 3] is reported as 0.77 %ID/g, the tissue uptake at 1.5 h [1, 3] is reported as 1.74 %ID/g and the tissue uptake at 72 h [1, 4] is reported as 0.25 %ID/g. For the same compound, the tissue uptake at 1.5 h [1, 4] was 0.95 %ID/g, the tissue uptake at 72 h ([1]; blood, read-out: Blood %IA/g) was 0.02 %ID/g and the tissue uptake at 1.5 h ([1]; blood, read-out: Blood %IA/g) was 0.44 %ID/g. The tissue uptake at 72 h ([1]; bone, read-out: Bone %IA/g) was 0.25 %ID/g, the tissue uptake at 1.5 h ([1]; bone, read-out: Bone %IA/g) was 0.49 %ID/g and the tissue uptake at 72 h [1, 5] was 0.12 %ID/g. For the same compound, the tissue uptake at 1.5 h [1, 5] was 0.32 %ID/g, the tissue uptake at 72 h [1, 6] was 169 %ID/g and the tissue uptake at 1.5 h [1, 6] was 274 %ID/g. For the same compound, the tissue uptake at 72 h [1, 7] was 0.78 %ID/g, the tissue uptake at 1.5 h [1, 7] was 1.76 %ID/g and the tissue uptake at 72 h ([1]; liver, read-out: Liver %IA/g) was 0.48 %ID/g. It also gave a tissue uptake at 1.5 h ([1]; liver, read-out: Liver %IA/g) of 1.16 %ID/g, a tissue uptake at 72 h ([1]; lung, read-out: Lung %IA/g) of 0.5 %ID/g and a tissue uptake at 1.5 h ([1]; lung, read-out: Lung %IA/g) of 2.88 %ID/g. It also gave a tissue uptake at 72 h ([1]; muscle, read-out: Muscle %IA/g) of 0.13 %ID/g, a tissue uptake at 1.5 h ([1]; muscle, read-out: Muscle %IA/g) of 0.26 %ID/g and a tissue uptake at 72 h [1, 8] of 0.08 %ID/g. It also gave a tissue uptake at 1.5 h [1, 8] of 0.14 %ID/g, a tissue uptake at 72 h [1, 9] of 0.15 %ID/g and a tissue uptake at 1.5 h [1, 9] of 0.73 %ID/g. For the same compound, the tissue uptake at 72 h ([1]; spleen, read-out: Spleen %IA/g) was 0.86 %ID/g, the tissue uptake at 1.5 h ([1]; spleen, read-out: Spleen %IA/g) was 0.89 %ID/g and the tissue uptake at 72 h [1, 10] was 2.42 %ID/g. The tissue uptake at 1.5 h [1, 10] was 3.29 %ID/g, the tissue to tissue ratio at 72 h ([1]; tumor / adrenals, read-out: tumor/organ ratio, Adrenals) was 3.7 and the tissue to tissue ratio at 72 h ([1]; tumor / bone, read-out: tumor/organ ratio, Bone) was 3.2. The tissue to tissue ratio at 72 h ([1]; tumor / large intestine (empty), read-out: tumor/organ ratio, Large intestine (empty)) was 1.4, the tissue to tissue ratio at 72 h ([1]; tumor / muscle, read-out: tumor/organ ratio, Muscle) was 6.9 and the tissue to tissue ratio at 72 h ([1]; tumor / small intestine (empty), read-out: tumor/organ ratio, Small intestine (empty)) was 5.6. The tissue to tissue ratio at 72 h ([1]; tumor / stomach (empty), read-out: tumor/organ ratio, Stomach (empty)) was 0.4, the tissue to tissue ratio at 1.5 h ([1]; tumor/adrenals, read-out: tumor/organ ratio, Adrenals) was 2.2 and the tissue to tissue ratio at 72 h [1, 11] was 56.1. The tissue to tissue ratio at 1.5 h [1, 11] was 4.3, the tissue to tissue ratio at 1.5 h ([1]; tumor/bone, read-out: tumor/organ ratio, Bone) was 3.6 and the tissue to tissue ratio at 72 h [1, 12] was 6.9. The tissue to tissue ratio at 1.5 h [1, 12] was 5.5, the tissue to tissue ratio at 1.5 h ([1]; tumor/large intestine (empty), read-out: tumor/organ ratio, Large intestine (empty)) was 1.1 and the tissue to tissue ratio at 72 h [1, 13] was 2. For the same compound, the tissue to tissue ratio at 1.5 h [1, 13] was 1.7, the tissue to tissue ratio at 72 h [1, 14] was 1.8 and the tissue to tissue ratio at 1.5 h [1, 14] was 0.6. It also gave a tissue to tissue ratio at 1.5 h ([1]; tumor/muscle, read-out: tumor/organ ratio, Muscle) of 7.2, a tissue to tissue ratio at 72 h [1, 15] of 9.9 and a tissue to tissue ratio at 1.5 h [1, 15] of 12.2. The tissue to tissue ratio at 1.5 h ([1]; tumor/small intestine (empty), read-out: tumor/organ ratio, Small intestine (empty)) was 2.5, the tissue to tissue ratio at 72 h [1, 16] was 1 and the tissue to tissue ratio at 1.5 h [1, 16] was 2.1. The tissue to tissue ratio at 1.5 h ([1]; tumor/stomach (empty), read-out: tumor/organ ratio, Stomach (empty)) was 0.6, the “tumor/organ ratio, Kidneys” value ([2]; 90 min p.i.) was 0.0 and the “tumor/organ ratio, Kidneys” value ([2]; 3 d p.i.) was 0.0.
